First the molecules themselves.
B1: LINE1-mini (parent)
chain: GGCAGAGCUCAACACAGCGUGGCAAAGUGGCUGUGGCUAGACUGCC

This data set covers variants of B1. The experiment in a line: self-cleavage, relative activity (ratio to wild type); higher = more cleavage; in vitro, sequencing; the parent is a self-cleaving ribozyme.
Consider GGAAGAGCUCAACACAGCGUAGCAAAGUGGCUGUGGCUAGACUGCC, for which the self-cleavage was 1.23.

Consider GGAAGAGCUCAACACAGCGUUGCAAAGUGGCUGUGGCUAGACUGCC, for which the self-cleavage amounted to 0.47.

For GGAAGAGCUCAACACAGCGUCGCAAAGUGGCUGUGGCUAGACUGCC, the self-cleavage was found to be 0.23.

GGAAGGGCUCAACACAGCGUGGCAAAGUGGCUGUGGCUAGACUGCC: the self-cleavage was determined as 0.2.

For the variant GGAAGUGCUCAACACAGCGUGGCAAAGUGGCUGUGGCUAGACUGCC, the self-cleavage was 0.76.

For GGAAGCGCUCAACACAGCGUGGCAAAGUGGCUGUGGCUAGACUGCC, the self-cleavage turned out to be 0.38.

Turning to GGAAGAGCUCAACACUGCGUGGCAAAGUGGCUGUGGCUAGACUGCC, the self-cleavage is 0.13.

Consider GGAAGAGCUCAACACCGCGUGGCAAAGUGGCUGUGGCUAGACUGCC, for which the self-cleavage is 0.12.

In the case of GGAAGAGCUCAACACGGCGUGGCAAAGUGGCUGUGGCUAGACUGCC, the self-cleavage worked out at 0.22.

Turning to GGAAGAACUCAACACAGCGUGGCAAAGUGGCUGUGGCUAGACUGCC, the self-cleavage amounted to 0.97.

Take GGAAGAUCUCAACACAGCGUGGCAAAGUGGCUGUGGCUAGACUGCC: the self-cleavage was determined as 0.4.

For GGAAGACCUCAACACAGCGUGGCAAAGUGGCUGUGGCUAGACUGCC, the self-cleavage is 0.13.

Regarding GGAAGAGCUCAACACAGCGUGGCAAAGUGGCUGUGGCUAGCCUGCC, the self-cleavage worked out at 0.15.

For GGAAGAGCUCAACACAGCGUGGCAAAGUGGCUGUGGCUAGGCUGCC, the self-cleavage was found to be 0.22.

On to GGAAGAGCUCAACACAGCGUGGCAAAGUGGCUGUGGCUAGUCUGCC, for which the self-cleavage stood at 0.32.

Regarding GGAAGAGCUCAACACAGCGUGGCAAAGUAGCUGUGGCUAGACUGCC, the self-cleavage is 0.51.

For the variant GGAAGAGCUCAACACAGUGUGGCAAAGUGGCUGUGGCUAGACUGCC, the self-cleavage came to 0.49.

For the variant GGAAGAGCUCAACACAGGGUGGCAAAGUGGCUGUGGCUAGACUGCC, the self-cleavage amounted to 0.2.

Regarding GGAAGAGCUCAACACAGAGUGGCAAAGUGGCUGUGGCUAGACUGCC, the self-cleavage was found to be 0.18.

For GGAAGAGCUCUACACAGCGUGGCAAAGUGGCUGUGGCUAGACUGCC, the self-cleavage is 0.06.

Regarding GGAAGAGCUCGACACAGCGUGGCAAAGUGGCUGUGGCUAGACUGCC, the self-cleavage was found to be 0.06.

Regarding GGAAGAGCUCCACACAGCGUGGCAAAGUGGCUGUGGCUAGACUGCC, the self-cleavage amounted to 0.04.

Consider GGAAGAGCUCAACACAGCGUGGCAAACUGGCUGUGGCUAGACUGCC, for which the self-cleavage was 0.24.

On to GGAAGAGCUCAACACAGCGUGGCAAAAUGGCUGUGGCUAGACUGCC, for which the self-cleavage was 0.31.

GGAAGAGCUCAACACAGCGUGGCAAAUUGGCUGUGGCUAGACUGCC: the self-cleavage stood at 0.62.

Take GUCAGAGCUCAACACAGCGUGGCAAAGUGGCCGUGGCUAGACUGCC: the self-cleavage came out at 0.03.

For GUCAGAGCUCAACACAGCGUGGCAAAGUGGCGGUGGCUAGACUGCC, the self-cleavage is 0.03.

Regarding GUCAGAGCUCAACACAGCGUGGCAAAGUGGCAGUGGCUAGACUGCC, the self-cleavage was found to be 0.03.

Take GGAAGAGCUCAACACAGCGUGGGAAAGUGGCUGUGGCUAGACUGCC: the self-cleavage was 0.45.

As for GGAAGAGCUCAACACAGCGUGGUAAAGUGGCUGUGGCUAGACUGCC, the self-cleavage stood at 0.71.

Turning to GGAAGAGCUCAACACAGCGUGGAAAAGUGGCUGUGGCUAGACUGCC, the self-cleavage is 0.61.

As to GGAAGAGCUCAACACAGCGUGGCAAAGUGGCUGUGGCUAGACUGCU, the self-cleavage worked out at 0.41.

On to GGAAGAGCUCAACACAGCGUGGCAAAGUGGCUGUGGCUAGACUGCA, for which the self-cleavage came out at 0.4.

GGAAGAGCUCAACACAGCGUGGCAAAGUGGCUGUGGCUAGACUGCG: the self-cleavage was found to be 0.29.

Consider GGAAGAGCUCAACACAGCGUGGCAAAGUGGCUGUGGCUAGAGUGCC, for which the self-cleavage amounted to 0.08.

GGAAGAGCUCAACACAGCGUGGCAAAGUGGCUGUGGCUAGAAUGCC: the self-cleavage was determined as 0.33.

As to GGAAGAGCUCAACACAGCGUGGCAAAGUGGCUGUGGCUAGAUUGCC, the self-cleavage was 0.26.

With GGAAGAGCUCAAUACAGCGUGGCAAAGUGGCUGUGGCUAGACUGCC, the self-cleavage was 1.71.

As for GGAAGAGCUCAAAACAGCGUGGCAAAGUGGCUGUGGCUAGACUGCC, the self-cleavage was found to be 0.25.

Turning to GGAAGAGCUCAAGACAGCGUGGCAAAGUGGCUGUGGCUAGACUGCC, the self-cleavage was 0.54.

For GGAAGAGUUCAACACAGCGUGGCAAAGUGGCUGUGGCUAGACUGCC, the self-cleavage was found to be 0.69.

Regarding GGAAGAGGUCAACACAGCGUGGCAAAGUGGCUGUGGCUAGACUGCC, the self-cleavage turned out to be 0.3.

In the case of GGAAGAGAUCAACACAGCGUGGCAAAGUGGCUGUGGCUAGACUGCC, the self-cleavage came out at 0.85.

As to GGAACAGCUCAACACAGCGUGGCAAAGUGGCUGUGGCUAGACUGCC, the self-cleavage is 0.31.

Regarding GGAAAAGCUCAACACAGCGUGGCAAAGUGGCUGUGGCUAGACUGCC, the self-cleavage was found to be 0.5.

On to GGAAUAGCUCAACACAGCGUGGCAAAGUGGCUGUGGCUAGACUGCC, for which the self-cleavage was 0.28.

As to GGAAGAGCUCAACACAGCGUGGCAAAGUGGCUGUGGUUAGACUGCC, the self-cleavage turned out to be 0.33.

As to GGAAGAGCUCAACACAGCGUGGCAAAGUGGCUGUGGGUAGACUGCC, the self-cleavage was 0.28.

On to GGAAGAGCUCAACACAGCGUGGCAAAGUGGCUGUGGAUAGACUGCC, for which the self-cleavage was 0.35.

On to GUCAGAGCUCAACACAGCGUGGCAAAGUGGCUGUGGCUAGACAGCC, for which the self-cleavage is 0.04.

Consider GUCAGAGCUCAACACAGCGUGGCAAAGUGGCUGUGGCUAGACCGCC, for which the self-cleavage was determined as 0.06.

Regarding GUCAGAGCUCAACACAGCGUGGCAAAGUGGCUGUGGCUAGACGGCC, the self-cleavage is 0.02.

For GUCAGAGCUCAACACAGCGUGGCAAAGUGGCUGUGGCUAGACUCCC, the self-cleavage is 0.09.

GUCAGAGCUCAACACAGCGUGGCAAAGUGGCUGUGGCUAGACUUCC: the self-cleavage was 0.06.

As for GGAAGAGCUCAACACAGCGUGCCAAAGUGGCUGUGGCUAGACUGCC, the self-cleavage amounted to 0.58.

In the case of GGAAGAGCUCAACACAGCGUGUCAAAGUGGCUGUGGCUAGACUGCC, the self-cleavage is 0.71.

The record behind these values is the RNAGym collection of RNA variant scans (doi:10.7554/elife.90254).
